Laboratory results as given in the RNAGym collection of RNA variant scans (doi:10.1073/pnas.2313332121).

B1: TPR t1 (parent)
chain: GACCAAUCUGCCCUCAGAGCUCGAGAACAUCUUCGGAUGCAGAGGAGGCAGGCUUCGGUGGCGCGAUAGCGCCAACGUCCUCAACCUCCAAUGCAUCCCACCACAUGAUGAUGCCUGAAGAGCCUUGGUUUUUUG

Variants of: B1
Test: polymerase ribozyme fitness, log enrichment relative to wild type (log ratio); higher = more active; in vitro selection for triplet polymerase activity
Outline: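 In triplicate, a single round of in vitro selection was run on each mutant library, PCR-built and transcribed, covering one subunit of a heterodimeric triplet polymerase ribozyme. Frozen incubation at −7 °C followed annealing with a biotinylated primer, partner subunit and triplets, and extended constructs were then gel-excised, streptavidin-captured and taken through RT-PCR. Fitness is the logarithm of genotype enrichment over wild-type enrichment, from inverse-variance-weighted replicate averages of Illumina-sequenced inputs and outputs. […] only genotypes with ≥10 input reads and ≥1 read per output were kept.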

Variant | polymerase ribozyme fitness (log ratio)
GACCAAUCUGCCCUCAGAGCUCGAGAACAUCUUCGGAUGCAGAGGAGGCAGGCUUCGGUGGCGCGAUAGCGCCAACGUCCUAAACCUCCAAUACAUCCCACCACAUGAUGAUGCCUGAAGAGCCUUGGUUUUUUG [C82A G93A] | -0.17
GACCAAUGUGCCCUCAGAGCUCGAGAAAAUCUUCGGAUGCAGAGGAGGCAGGCUUCGGUGGCGCGAUAGCGGCAACGUCCUCAACCUCCAAUGCAUCCCACCACAUGAUGAUGCCUGAAGAGCCUUGGUUUUUUG [C8G C28A C72G] | -3.76
GACCAAUCUGGCCUCAGAGCUCGAGAACAUCUUCGGAUGCAGAGGAGGCAGGCUUCGGUGGCGCGAUAGCGCCAACGUCCUCAACCUCCAAUGCAUCCCACCACAUGAUUAUGCCUGAAGAGCCAUGGUUUUUUG [C11G G110U U125A] | -0.479
GACCAAUCUGCCCUCAGAGCUCGAGUACAUCUUCGGAUGCAGAGGAGGCAGGCUUCGGUGGCGCGAUAGCGCCGACGUCCUCAACCUCCAAUGCAUCUCACCACAUGAUGAUGCCUGAAGAGCCUUGGUUUUUUG [A26U A74G C98U] | -4.46
GACCAAUCUGCCCUCAGAGCUCGAGAACAUCUUAGGAAGCAGAGGAGGCAGGCUUCGGUGGCGCGAUAGCUCCAACGUCCUCAACCUCCAAUGCAUCCCAUCACAUGAUGAUGCCUGAAGAGCCUUGGUUUUUUG [C34A U38A G71U C101U] | -5.16
GACCAAUCUGCCCUCAGAGCUCGAGAACAUCUUCGGACGCAGUGGAGGCAGGCUUCGGUGGCGCGAUAGCGCCAACGUCCUCAACCUCCAAUGCAUCCCACCACAUGAUGAUGCCUGAAGAGCCUUGGUUUUUUG [U38C A43U] | -2.21
GACCAAUCUGCCCUCAGAGCUCGAGAACAUCUUCGGAUGGAGAGGAGGCAGGCUUCGGUGGCGCGAUAGCGCCAACGUCCUCAACCUCCAAUGCAUCCCACCACAUGAUGAUGCCUCAAGAGCCUUGGUUUUUUG [C40G G117C] | -3.98
GACCAAUCUGCCCUAAGAGCUCGAGGACAUCUUCGGAUGCAGAGGAGGCAGGCUUCGGUGGCGCGAUAGCGCCAACGUCCUCAACCUCCAAUGCAUCCCACCACAUGAUAAUUCCUGAAGAGCCUUGGUUUUUUG [C15A A26G G110A G113U] | -6
GACCAAUCUGCCCUCAGAGCUCGAGAACGUCUUCGGAUGCAGAGGAGGCAGGCUUCGGUGGCGCGAUAGCGCCAACGUCCUCAACCACCAAUGCAUCCCACCACAUGAUGAUGCCUGAAGAGCCUUGGUUUUUUG [A29G U87A] | -1.67
GACCAAACUGCCCUUAGAGCUCGAGAACAUCUUCGGAUGCAGAGGAGGCAGGCUUAGGUGGCGCGAUAUCGCCAACGUCCUCAACCUCCAAUGCAUCCCACCACAGGAUGAUGCCUGAACAGCCUUGGUUUUUUG [U7A C15U C56A G69U U106G G120C] | -0.793
GACCAAUCUGCCCUCAGAGCUCGAGAACAUCUUCGGAUGCAGAGGAGGCAGGCUUCGGUGGCGCGAUAGCGCCAACGUCCUCAACCUCCUAUUCAUCCCACCACAUGAUGAUGCCUGAAGAGCCUUGGUUUUUUG [A90U G93U] | -1.11
GACCAAUUUGCCCUCAGAGCUCGAGAACAUCUUCGGAUGCAGAGGAGGCAGGCUUCGGAGGCGCGAUAGCGCCAACGUCCUCAACCUCCAAUGUAUCCCACCACAUGAUGAUGCCUGAUGAGCCUUGGUUUUUUG [C8U U59A C94U A119U] | -0.404
GACCAAUCUGCACUCAGAGCUCGAGAACAUCUUCGGAUGCAGAGGAGGCAGGCUUCGGUGGCGCGAUAGCGCCAACGUCCUCAACCUCCAAUGUAUCCCACCACAUGAUGAUGCCUGAAGAGCCUUGGUUUUUUG [C12A C94U] | -0.961
GACCAAUCUGCCCUCAGGGCUCGAGAACAUCUUCGGAUUCAGAGGAGGCAGGCUUCGGUGGCGCGAUAGCGCCAACGUCCUCAACCUCCAAUGCAUCCCACCACAUGAUGAUGCCUGAAGAGCCUUGGUUUUUUG [A18G G39U] | -3.93
GACCAAUCUGCCCUCAGAGCUCGAGAACAUCUUCGGAUGCAGAGGAGGUAGGCUUCGGUGGCGCGAUAGCGCGAACGUCCUCAACCUCCAAUGCAUCCCACCACAUGAUGAUGCCUGAAGCGCCUUGGUUUUUUG [C49U C73G A121C] | 0.163
GACCAAUCUGCCCUCAGAGCUCGAGAACAUCUUCGGAUGCAGAGGAGGCAGGCUUCGGUCGCGCGAUAGCGCCCACGUCCUCAACCUCCAAUGCAUCCCACCACAUGAUGAUGCCUGAAGAGCCUUGGUUUUUUG [G60C A74C] | -4.67
GACCAAUCGGCCCUCAGAGCUCGAGAACAUCUUCGGAUGCAGAGGCGGCAGGCUUCGGUGACGCGAUAGCGCCAACGUCCUCAACCACCAAUCCAUCCCACCACAUGAUGAUGCACGACGAGCCUUGGUUUUUUG [U9G A46C G61A U87A G93C C115A U116C A119C] | -3.51
GACCAAUCUGCCCUCAGAGCUCGAGAACAUCUUCGGAUGCAGAGGAGGCAGGCUUCGGUGGCGCGAUAGCGCCGACGUCCUCAACCUCCAAUGCAUCCCACCACAUGAUGAAGCCUGAAGAGCCUAGGUUUUUUG [A74G U112A U126A] | 0.303
GACCAAUCUGGCCUCAGAGCUCGAGAACAUCUUCGGAUGCAGAGGAGGCAGGCUUUGGUGGCGCGAUAGCGCCAACGUCCUCAACCCCCAAUGCAUCCCACCACAUGAUGAUGCCUGAAGAGCCUUGGUUUUUUG [C11G C56U U87C] | 0.175
GACCAAUCUGCCCUCAGAGCUCGAGAACAUCUUCGGAUGCAGAGGAGGCAGGCUUCGGUUGCGCGAUAGCGCCAACGUCCUCAACCUCCAAUGCAUCCCACCACAUGAUGAUGCCUGAAGUGCCUUGGUUUUUUG [G60U A121U] | 1.63
GACCAAUCUGCCCUCAGAGCUCGAGAACAUCUUCGGAUGCAGAGGAGGCAGGCUUCGGUGGCGCGAUAGCGCCAACGUCCUCAACCUCCAAUGCAUCCCACCACCUGAUGAUGCCUGAAGAGCCGUGGUUUUUUG [A105C U125G] | -3.17

Variant | polymerase ribozyme fitness (log ratio)
GACCAAUCUGCCCUCAGAGCUCGAGAACAUCUUCGGAUGCAUAGGAGGCAGGCUUCGGUGGCGCGAUACCGCCAACGUCCUCAACCUCCAAUGCAUCCCACCACAUGAUGAUGCCUGAAUAGCCUUGGUUUUUUG [G42U G69C G120U] | -3.45
GACCAAUCUGCCCUCAGAGCUCGGGAACAUCUUCGGAUGCAGAGGAGGCAGGCUUCGGUGGAGCGAUAGCGCCAACGUCCUCAACCUCCAAUGCAUCCCACCACAUGAUGAUGCCUGAAGAGCCUUGGUUUUUUG [A24G C62A] | -2.63
GACCAAUCUGCCCUCAGAGCUCGAGAACAUCUUCGGUUGCAGAGGAGGCAGGCUUCGGUGGCGCGAUAGCGCCAACGUCCUCAACCUCCAAUGCAUCCCACCACCUGAUGAUGCCUGAAGAGCCUUGGUUUUUUG [A37U A105C] | -3.01
GACCAAUCUGCCCUCAGAGCUCGAGAACAUCUUCGGAUGCAGAGGAGGCAGGCUUCGGUGGGGCGAUAGCGCCAACGUCCUCAACCUCCAAUGCAUCCCACCACAUGAUGAUGCCUGAAGAGCAUUGGUUUUUUG [C62G C124A] | -0.74
GACCAAUCUGGCCUCAGAGCUCGAGAACAUCUUCGGAUGCAGAGGAGGCAGGCUUCGGUGGCGCGAUAGCGCCAACGUCUUCAACCUCCAAUGCAUCCCACCACAUGAUGAUGCCUGAAGAGCCUUGGUUUUUUG [C11G C80U] | -0.0495
GAACAAUAUGCGCUCAGAGCUCGAGAACAUCUUCGGAUGCAGAGGAGGCAGGCUUCGGUAGCGCGAUAGCGCCAACGUCCUCAACCUCCAAAGCAUCCCACCACAUGAUGAUGCCUGAAGAGCAUUGGUUUUUUG [C3A C8A C12G G60A U92A C124A] | -2.58
GACUAAUCUGCCCUCAGAGCUCGAGAACAUCUUCGGAUGCAGAGGAGGCACGCUUCGGUGGCGCGAUAGCGCCAACGUCCUCAACCUCCAAUGCAUCCCACCACAUGAUGAUGCCUGAAGAGCCUUGGUUUUUUG [C4U G51C] | -2.89
GACCAAUCUGCACUCAGAGCUCGAGAACAUCUUCGGAUGCAGAGGAGGCAGGCUUCGGUGGCGCGAUAGCGCUAAAGUCCUCAACCUCCAAUGCAUCCCACCACAUGAUGAUGCCUGAACAGCCUUGGUUUUUUG [C12A C73U C76A G120C] | -0.37
GACCAAUCUACCCUCAGAGCUCGAGAACAUCUUCGGAUGCAGAGGAGGCAGGCUUCGGUGGCGCGAUAGCGCCAACGUCCUCCACCUCCAAUGCAUCCCACCACAUGAUCAUGCCUGAAGAGCCUUGGUUUUAUG [G10A A83C G110C U133A] | -3.93
GACCAAUCUGCCCUCAGAGCUCGAGAACAUCUUCGGAUGCAGAGUAGGCAGGCUUCGGUGGCGCGAUAGCGGCAACGUCCUCAACCUCCAAUGCAUCCCACCACAUGAUGAUGCCUGAAGAGCCUUGGUUUUUUG [G45U C72G] | -1.73
GACCAAUCUGCCCUCAGAGCUCGAGAACAUCUUCGGAUGCAUAGGAGGCAGGCUUCGGUGGCACGAUAGCGCCAACGUCCUCAACCUCUAAUGCAUCCCACCACAUGAUGAUGCCUGAAGAGCCUUGGUUUUUUG [G42U G63A C89U] | -3.28
GACCAAUCUGCCCUCAGAGCUCGAGAUCAUCUUCGGAUGCAGAGGAGGCAGGCUUCGGUGGCGCGAUAGCGCCAACGUCCUCAACCUCCAAUGCAUCCCACCACAUGAUGAUGCCUGACAAGCCUUGGUUUUUUG [A27U A119C G120A] | -2.76
GACCAAUCUGCCCUCAGAGCUCGAGAACAUCUUCGGAUGCAGAGGAGGCAGGCUUCGGUGGCGCGAUAGCGCCAACGUCCUCAGCCUCCAAUCCAUCCCACCACAUGAUGAUGCCUGAAGAGCCUUUGUUUUUUG [A84G G93C G127U] | -1.68
GACCAAUCUGCCCUCAGAGCUCGAGAACAUCUUCGGAUGCAGAGGAGGCAGGCUUCGGAGGCGCGAUAGCGCCAACGUCCUCAACCUGCAAUGCAUCCCACCACAUGAUGAUGCCUGAAGAGCCUUGGUUUUUUG [U59A C88G] | -1.44
GACCAAUCUGACCUCAGAGCUCGAGAACAUCUUCGGAUGCAGAGGAGUCAGGCUUCGGUGGCGCGUUAGCGACAACGUCCUCAACCUCCAAUGCAGCCCACCACAUGAUGACGCCUGAAGAGCCUUGGUUUUUUG [C11A G48U A66U C72A U96G U112C] | -2.05
GACCAAUCUGCCCUCAGAGCUCGAGAAUAUCUUCGGAUACAGAGGAGGCAGGCUUCGGUGGCGCGAUAGCGCCAACGUCCUCAACCUCCAAUGCAUCCCACCACAUGAUGAUGCCUGAAGAGCCUUGGUUUUUUG [C28U G39A] | -2.12
GACCAAUCUGCCCUCAGAGCUCGAGAACAUCUUCGGAUGCAGAGGAGCCAGUCUUCGGUAGCGCGAUAGCGCCAACGUCCUCAACCUCCAAUGCAUCCCACCACAUGAAUAUGCCUGAAGAGCCUUGGUUUUUUG [G48C G52U G60A U109A G110U] | -6.29
GACCAUUCUGCCCUCAGAGCUCGAGAACAUCUUCGGAUGCAGAGGAGGCAGGCUUGGGUGGCGCGAUAGCGCCAACGUCCUCAACCUCCAAUGCAUCCCACCACAUGAUUAUGCCUGAAGAGCCUUGGUUUUUUG [A6U C56G G110U] | -1.25
GACCAAUCUGCACUCAGAGCUCGAGAACAUCUUCGGAUGCAGAGGAGGCAGGCUUCGGUGGUGCGAUAGCGCCAACGUCCUCGACCUCCAAUGCAUCCCCCCACAUGAUGAUGCCUGAAGAGCCUUGGUUUUUUG [C12A C62U A83G A100C] | -3.89
GACCAAUCUGCCCUCAGAGAUCGAGAACAUCUUCGGAUGCAGAGGAGGCAGGCUUCGGUGGCGCGAUAGCGCCAACGUCCUCAACCUCCAAUGCAUCCCACCACAUGAUGAUGCCUGAAUAGCCUUGGUUUUUUG [C20A G120U] | -2.44
GACCAAUCUGCCCUCAGAGCUCGAGAACAUCUUCGGAUGCAGAGGAGGCAGGCUUCGGUGGCGCGAUAGCGCCAACGUCCUCAACCUCCAAUGCAGCUCACCACAUGAUGAUGCCUGAAGAGCCUUGGUUUUUUG [U96G C98U] | -3.02
